Laboratory results reported in the supplement of paper PMC7877785.
± gives the uncertainty stated by the source.

Assay: self-splicing fitness, log relative to wild type (ln ratio); higher = more splicing; Tetrahymena group I intron in knt gene, E. coli kanamycin selection, DiMSum; sequences stand for … in CUCUCU…GGAGGGAAAAGUUAUCAGGCAUGCACCUGGUAGCUAGUCUUUAAACCAAUAGAUUGCAUCGGUUUAAAAGGCAAGACCGUCAAAUUGCGGGAAAGGGGUCAACAGCCGUUCAGUACCAAGUCUCAGGGGAAACUUUGAGAUGGCCUUGCAAAGGGUAUGGUAAUAAGCUGACGGACAUGGUCCUAACCACGCAGCCAAGUCCUAAGUCAACAGAUCUUCUGUUGAUAUGGAUGCAGUUCACAGACUAAAUGUCGGUCGGGGAAGAUGUAUUCUUCUCAUAAGAUAUAGUCGGACCUCUCCUUAAUGGGAGCUAGCGGAUGAAGUGAUGCAACACUGGAGCCGCUGGGAACUAAUUUGUAUGCGAAAGUAUAUUGAUUAGUUUUGGAGUACUCGUGGUCG
Summary of the method: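 Pooled colonies went to amplicon sequencing on an Illumina HiSeq 2500 after six replicate transformations. The plates were LB agar with 100 μg/mL carbenicillin, 50 μM IPTG and 0.2% rhamnose, with or without 25 μg/mL kanamycin, incubated overnight at 37°C or 30°C. The E. coli BL21(DE3) library had all eight P1ex-region intron nucleotides randomised, the intron placed in the knt kanamycin-resistance gene on pET-22b(+). DiMSum fitness is the error-weighted combination of replicate fold changes, kanamycin against none, normalised to wild type.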

Sequence	self-splicing fitness (ln) (30 °C)	self-splicing fitness (ln) (37 °C)
GGCUAGCAAUAUUACGCCAG	-1.55 ± 0.23	–
ACAGAGCAAUAUUACGCAAA	-2.6 ± 0.34	-1.42 ± 0.28
GGGUAGCAAUAUUACGUCUC	-0.431 ± 0.28	0.223 ± 0.43
CCAUAGCAAUAUUACGCACU	-3.41 ± 0.4	-3.05 ± 0.34
GAUUAGCAAUAUUACGAGCA	-1.27 ± 0.17	0.106 ± 0.14
CUUGAGCAAUAUUACGACAU	-3.581 ± 0.028	-2.55 ± 0.041
CGGUAGCAAUAUUACGCCUU	-0.779 ± 0.11	-0.542 ± 0.14
UUGGAGCAAUAUUACGUGUG	-3.71 ± 0.2	-2.38 ± 0.14
AUCCAGCAAUAUUACGGCCG	-1.22 ± 0.097	-0.00834 ± 0.12
CCACAGCAAUAUUACGGCAU	-3.72 ± 0.16	-2.54 ± 0.18
CACGAGCAAUAUUACGUCAG	-3.42 ± 0.13	-2.32 ± 0.11
UGUCAGCAAUAUUACGCUGU	-3.1 ± 0.23	-1.63 ± 0.19
GCCCAGCAAUAUUACGGGGA	-0.813 ± 0.082	-0.181 ± 0.099
GUCAAGCAAUAUUACGUCCU	-2.13 ± 0.11	-1.04 ± 0.11
GAAUAGCAAUAUUACGUUGC	-4.27 ± 0.34	-2.69 ± 0.37
UUAUAGCAAUAUUACGUGCG	-1.06 ± 0.15	-0.395 ± 0.17
AAGGAGCAAUAUUACGGUGA	-2.44 ± 0.21	-1.09 ± 0.2
CUCGAGCAAUAUUACGAUGU	–	-2.06 ± 0.3
ACACAGCAAUAUUACGGUAU	-2.59 ± 0.088	-1.59 ± 0.092
UCGCAGCAAUAUUACGGUAA	-0.786 ± 0.061	-0.563 ± 0.071
CUGCAGCAAUAUUACGCCAA	–	-1.67 ± 0.18
GCGGAGCAAUAUUACGCUUG	-3.14 ± 0.24	-1.06 ± 0.2
AGUAAGCAAUAUUACGGGCU	-1.28 ± 0.12	-1.6 ± 0.17
GCUCAGCAAUAUUACGCCGG	-2.03 ± 0.15	-0.855 ± 0.17
UAAGAGCAAUAUUACGGCCA	-1.81 ± 0.3	-1.48 ± 0.37
GUUCAGCAAUAUUACGUUAC	-1.98 ± 0.13	-1 ± 0.094

Sequence	self-splicing fitness (ln) (30 °C)	self-splicing fitness (ln) (37 °C)
GGUCAGCAAUAUUACGGGGU	-3.37 ± 0.12	-0.793 ± 0.086
AUGGAGCAAUAUUACGGCGC	-2.45 ± 0.34	-0.677 ± 0.41
ACGGAGCAAUAUUACGCUAC	-3.07 ± 0.33	-2.06 ± 0.39
GCUAAGCAAUAUUACGGCCC	-1.78 ± 0.18	-0.371 ± 0.14
AACGAGCAAUAUUACGUCAC	-4.01 ± 0.23	-1.83 ± 0.22
UGCUAGCAAUAUUACGGGCA	-3.8 ± 0.25	-2.02 ± 0.19
UAUCAGCAAUAUUACGCCGC	-1.58 ± 0.19	-2.02 ± 0.27
AUUUAGCAAUAUUACGGGUG	-3.24 ± 0.14	-1.57 ± 0.14
CAGAAGCAAUAUUACGUAUA	-3.84 ± 0.21	-1.84 ± 0.14
UGGGAGCAAUAUUACGUAAA	-1.97 ± 0.36	–
GUCGAGCAAUAUUACGAGCG	-2.88 ± 0.19	-1.03 ± 0.23
CAUUAGCAAUAUUACGCACC	-2.94 ± 0.23	-1.53 ± 0.19
CGAAAGCAAUAUUACGCCCA	-0.283 ± 0.12	0.0973 ± 0.15
CAACAGCAAUAUUACGAUAC	-3.29 ± 0.28	-2.91 ± 0.37
UCUGAGCAAUAUUACGGUGC	-4.39 ± 0.39	-2.45 ± 0.25
UUGCAGCAAUAUUACGCGCC	-2.28 ± 0.44	–
CGAUAGCAAUAUUACGCACG	-2.6 ± 0.36	-1.91 ± 0.37
UUAGAGCAAUAUUACGGUCC	-2.67 ± 0.42	–
GUUGAGCAAUAUUACGAGAA	–	-0.619 ± 0.5
UUGUAGCAAUAUUACGUUCU	-2.42 ± 0.15	-1.69 ± 0.2
CAUGAGCAAUAUUACGCGAA	-3.03 ± 0.17	-1.57 ± 0.15
ACGCAGCAAUAUUACGGUUG	-3.89 ± 0.2	-1.85 ± 0.14
AAUAAGCAAUAUUACGGUGA	-1.18 ± 0.093	-0.256 ± 0.11
GAUUAGCAAUAUUACGCCCA	-0.748 ± 0.11	0.123 ± 0.14
GGCCAGCAAUAUUACGGUAU	-0.512 ± 0.06	0.47 ± 0.084
AGAUAGCAAUAUUACGUGGC	-3.18 ± 0.23	-2.86 ± 0.32

Sequence	self-splicing fitness (ln) (30 °C)	self-splicing fitness (ln) (37 °C)
GCGCAGCAAUAUUACGUCAC	-4.04 ± 0.17	-1.65 ± 0.11
GAUGAGCAAUAUUACGGAGA	-2.91 ± 0.5	-3 ± 0.47
CAGUAGCAAUAUUACGCUGC	–	-1.92 ± 0.43
AAUUAGCAAUAUUACGAUAG	-3.1 ± 0.26	-1.75 ± 0.18
UUCUAGCAAUAUUACGGUUU	-2.05 ± 0.11	-1.52 ± 0.12
CUCGAGCAAUAUUACGAGAG	-1.71 ± 0.28	–
CCUGAGCAAUAUUACGCCUC	-2.22 ± 0.29	-1.88 ± 0.3
CGUCAGCAAUAUUACGAGGA	-2.27 ± 0.19	-2.38 ± 0.28
CAAGAGCAAUAUUACGUAUU	-3.55 ± 0.23	-1.83 ± 0.19
GAGCAGCAAUAUUACGCAUG	-3.03 ± 0.34	-1.67 ± 0.31
GAGAAGCAAUAUUACGGAUC	-2.34 ± 0.34	-1.97 ± 0.4
AUCCAGCAAUAUUACGUUGA	-1.6 ± 0.077	-0.866 ± 0.087
UCCUAGCAAUAUUACGGAUU	-4.22 ± 0.23	-2.36 ± 0.21
UGUUAGCAAUAUUACGAAAA	-2.39 ± 0.46	-1.28 ± 0.22
CAUUAGCAAUAUUACGUAUA	-2.34 ± 0.14	-0.81 ± 0.12
ACGGAGCAAUAUUACGGCUG	-2.87 ± 0.12	-1.26 ± 0.13
CCGUAGCAAUAUUACGUUGU	-3.87 ± 0.16	-2.3 ± 0.18
GCUAAGCAAUAUUACGUAGU	-4.17 ± 0.31	-2.32 ± 0.19
ACACAGCAAUAUUACGUCCU	-0.17 ± 0.055	0.432 ± 0.075
AAGAAGCAAUAUUACGAAUA	-1.86 ± 0.17	-0.73 ± 0.12
GCGCAGCAAUAUUACGUGGG	-2.53 ± 0.1	-1.6 ± 0.11
GAUGAGCAAUAUUACGAAAU	-1.53 ± 0.18	-1.92 ± 0.37
CCGUAGCAAUAUUACGUAAC	-4.68 ± 0.46	-0.709 ± 0.24
GGGGAGCAAUAUUACGAACU	-2.75 ± 0.31	-1.76 ± 0.27
AAAGAGCAAUAUUACGGGUA	-2.81 ± 0.26	-1.88 ± 0.27
UCUGAGCAAUAUUACGAGCC	-1.65 ± 0.22	–
